Reference: patent US20240383993A1 (LANOVA MEDICINES, published 2024)
Numbering of substitutions follows the chain as printed. Names may count otherwise.

B1: VV02-1LP-263 huNb_2_3 (Fc fusion, not shown: a dimerising Fc or GST)
VHH: EVQLVESGGGLVQPGGSLRLSCAASGFTFSSSAMSWARQAPGKGFEWVSGIYSGGSTYYTESVKDRFTISRDNAKNTVYLQMNSLKPEDTAVYYCATWGTLRFGVWAEYDHWGQGTLVTVSS
notes: detection by anti-human Fc
B2: VV02-1LP-263 huNb_1_3 (Fc fusion, not shown: a dimerising Fc or GST)
VHH: B1 VHH with V5L, A40T, A74S, L117Q
notes: detection by anti-human Fc
B3: VV02-1LP-263 huNb_3_2 (Fc fusion, not shown: a dimerising Fc or GST)
VHH: B1 VHH with E1Q, Q13K, T77S, V78L, K86R, L117Q
notes: detection by anti-human Fc
B4: VV02-1LP-263 huNb_2_2 (Fc fusion, not shown: a dimerising Fc or GST)
VHH: B1 VHH with F45L, V78L, K86R
notes: detection by anti-human Fc
B5: VV02-1LP-263 huNb_1_2 (Fc fusion, not shown: a dimerising Fc or GST)
VHH: B1 VHH with V5L, F45L, A74S
notes: detection by anti-human Fc
B6: VV02-1LP-263 huNb_3_3 (Fc fusion)
VHH: B1 VHH with E1Q, T77S, L117Q
notes: detection by anti-human Fc; not shown: Fc part, implied only by the anti-human Fc secondary antibody
B7: VV02-1SP (1)-73 huNb_2_3 (Fc fusion)
VHH: EVQLVESGGGLVQPGGSLRLSCAVSGFTFSSSAMSWARQAPGKEFEWVSSIYSSGKTYYVESVKGRFTISRDNAKNTVYLQMSSLRPEDTAVYYCATWKTLRVGVWDESDYWGQGTQVTVSS
notes: as for B6
B8: VV02-1SP (1)-73 huNb_1_3 (Fc fusion)
VHH: B7 VHH with Q3D, Q117L
notes: as for B6
B9: VV02-1SP (1)-73 huNb_2_2 (Fc fusion)
VHH: B7 VHH with V12I, V24A, V78L, P87A
notes: as for B6
B10: VV02-1SP (1)-73 huNb_3_3 (Fc fusion)
VHH: B7 VHH with T77S, Q117L
notes: detection by anti-human Fc; not shown: Human Fc part, implied only by the anti-human Fc secondary antibody
B11: VV02-1SP (1)-73 huNb_3_2 (Fc fusion)
VHH: B7 VHH with V24A, E44G, T77S, V78L, P87A, Q117L
notes: as for B10
B12: VV02-1SP (1)-73 huNb_1_2 (Fc fusion)
VHH: B7 VHH with V5L, V24A, F45L, V78L, P87A, Q117L
notes: as for B6
B13: VV02-1SP (1)-73 huNb_3_1 (Fc fusion)
VHH: B7 VHH with V24A, E44G, S49A, T77S, V78L, S83N, P87A, T97R, Q117L
notes: as for B6
B14: VV02-1LP-317 (Fc fusion, not shown: a dimerising Fc or GST; small tags and cut ends)
VHH: EVDLVESGGGLVQPGGSLRLSCAASGFTFSRSAMSWARQAPGKGFEWVSGIYSGGSTYYVDSVEGRFTISRDNAKNTVYLQMNSLKPEDTAVYYCATWGSQQIGVWHEDDYWGQGTQVTVSS
notes: Llama nanobody tested as fusion with human IgG1 Fc (N297A)
B15: VV02-1SP (1)-168 (Fc fusion, not shown: a dimerising Fc or GST; small tags and cut ends)
VHH: QVQLVESGGGLVQPGGSLRLSCAASGFTFSSYAMSWARQAPGKDFEWVSYIYSDGNTYYADSVKGRFTISRDNAKNTVYLQMNSLKPEDTAVYYCATWHTLRVGVWDEYDYWGQGTQVTVSS
notes: as for B14
B16: VV02-2LP-13 (Fc fusion)
VHH: AVQLVESGGGLVQPGGSLRLSCAASGFTFSSYAMSWARQVPGKGFEWVAYIYSDGSTYYADSVKGRFTISRDNAKDTVYLHMNSLKFEDMAVYYCATWRSQQVGRWDEYDHWGQGTQVTVSS
notes: Llama nanobody tested as fusion with human IgG1 Fc (N297A); not shown: Human IgG1 Fc fragment with N297A, plus the hinge or linker joining it to the nanobody
B17: VV02-1SP (1)-358 (Fc fusion, not shown: a dimerising Fc or GST; small tags and cut ends)
VHH: B16 VHH with A1E, R19M, L20I, Y32S, E108K, H111Y
notes: as for B14
B18: VV02-3LP-142 (Fc fusion)
VHH: B16 VHH with P14R, R19K, A23V, A24G, T28D, S31D, Y32H
notes: as for B16
B19: VV02-3LP-83 (Fc fusion)
VHH: B16 VHH with A1E, Q3D, S30R
notes: as for B16
B20: VV02-1SP (1)-55 (Fc fusion, not shown: a dimerising Fc or GST; small tags and cut ends)
VHH: B16 VHH with A1E, Y32S, H111Y, T116I
notes: as for B14
B21: VV02-1LP-417 (Fc fusion)
VHH: QLQLVESGGGLVQPGGSLRLSCAASGFALDYSAIGWFRQAPGKEREGVLCISSSGDVTIYADSVKGRFTISRDNAKNTVYLQMNSLKPEDTAVYYCVAPRICSTYSSDDYWGQGTQVTVSS
notes: as for B16
B22: VV02-1LP-288 (Fc fusion, not shown: a dimerising Fc or GST; small tags and cut ends)
VHH: B21 VHH with Q1E, L2V, L4V, F27S, A28S
notes: as for B14
B23: VV02-1LP-422 (Fc fusion, not shown: a dimerising Fc or GST; small tags and cut ends)
VHH: B21 VHH with A28T, D30A, Y31D, S32Y
notes: as for B14
B24: VV02-1LP-238 (Fc fusion, not shown: a dimerising Fc or GST; small tags and cut ends)
VHH: B21 VHH with L2V, P14A, S17A, A28T
notes: as for B14
B25: VV02-1SP (1)-73 (Fc fusion, not shown: a dimerising Fc or GST; small tags and cut ends)
VHH: B7 VHH with Q3D, S31N, S54D, E61D, R86K
notes: as for B14

biological target: T1, human 4-1BB expressed on cells (human, UniProt Q07011 24-255); assay: flow cytometry on CHO-K1/hu4-1BB cells, anti-human Fc-Alexa Fluor 633
T1 construct: whole, on cells; also called CHO-K1/hu4-1BB; cell surface human 4-1BB
Experimental: (§1) To evaluate the antigen binding property in a cell-based setting, the 4-1BB humanized nanobodies were analyzed for their binding to 4-1BB overexpressed on CHO-K1 cells by FACS.
(§2) Briefly, CHO-K1 cells overexpressing human 4-1BB or cynomolgus 4-1BB were incubated with the serial diluted anti-4-1BB nanobodies for 30 min at 4° C. Then, the cells were incubated with Alexa Fluor 633-conjugated anti-human Fc secondary antibody. Binding was measured with an Agilent flow cytometer.

T1 sequence (Q07011 24-255): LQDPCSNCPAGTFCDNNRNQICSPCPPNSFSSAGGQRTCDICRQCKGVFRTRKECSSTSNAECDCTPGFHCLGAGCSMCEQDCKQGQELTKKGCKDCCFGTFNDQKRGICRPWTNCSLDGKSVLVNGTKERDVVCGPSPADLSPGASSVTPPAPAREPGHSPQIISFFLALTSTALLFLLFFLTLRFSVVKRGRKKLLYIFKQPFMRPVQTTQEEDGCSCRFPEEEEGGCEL

Binder | EC50 [nM] | Max (MFI)
B1 | 0.11 | 39100
B2 | 0.11 | 42100
B3 | 0.14 | 38000
B4 | 0.19 | 23400
B5 | 0.17 | 23500
B6 | 0.12 | 40300
B7 | 0.49 | –
B8 | 0.61 | –
B9 | 0.37 | 9270
B10 | 0.66 | 9630
B11 | 0.52 | 8560
B12 | 0.8 | 5240
B13 | 27.4 | 3700

biological target: T1, human 4-1BB expressed on cells; assay: cell-based or functional assay

Binder | EC50 (nM) in Jurkat-41BB NFκB reporter assay [nM]
B14 | 0.031
B15 | 0.002
B16 | 0.036
B17 | 0.004
B18 | 0.014
B19 | 0.014
B20 | 0.023
B21 | 0.081
B22 | 0.052
B23 | 0.013
B24 | 0.008
B25 | 0.01

biological target: T2, cynomolgus 4-1BB overexpressed on CHO-K1 cells (cynomolgus, UniProt A9YYE7 24-254); assay: flow cytometry on CHO-K1/Cyno-41BB cells, anti-human Fc-Alexa Fluor 633
T2 construct: whole, on cells; also called CHO-K1/Cyno-41BB; cell surface cyno 4-1BB
Experimental: as §1, §2

T2 sequence (A9YYE7 entry or part of it): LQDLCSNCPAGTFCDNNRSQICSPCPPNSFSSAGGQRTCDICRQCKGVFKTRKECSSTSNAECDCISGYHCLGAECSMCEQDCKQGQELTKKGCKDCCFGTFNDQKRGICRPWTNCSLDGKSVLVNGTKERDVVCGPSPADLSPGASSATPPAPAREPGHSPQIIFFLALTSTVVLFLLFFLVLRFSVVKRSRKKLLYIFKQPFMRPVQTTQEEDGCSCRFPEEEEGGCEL

Binder | EC50 [nM] | Max (MFI)
B1 | 0.37 | 130000
B2 | 0.33 | 134000
B3 | 0.7 | 128000
B4 | 0.64 | 86400
B5 | 0.69 | 99600
B6 | 0.7 | 149000

biological target: T3, His-tagged cynomolgus 4-1BB protein (cynomolgus, UniProt A9YYE7 24-186); assay: ELISA, coated His-tagged 4-1BB, anti-human IgG-HRP
T3 construct: Coated on ELISA plates at 2 µg/ml; also called Cyno 4-1BB; soluble cynomolgus 4-1BB; not shown: His tag
T3 sequence: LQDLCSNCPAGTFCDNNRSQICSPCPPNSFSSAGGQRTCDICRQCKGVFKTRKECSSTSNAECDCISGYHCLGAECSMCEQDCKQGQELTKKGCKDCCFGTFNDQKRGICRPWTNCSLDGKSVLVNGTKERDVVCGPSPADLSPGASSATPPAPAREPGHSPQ
Experimental: (§3) His-tagged 4-1BB was coated at 2 μg/ml overnight and then blocked by 2% BSA in PBS. Serially diluted anti-4-1BB nanobodies were incubated with the coated antigen for 1h at room temperature with a reference antibody “Ref mAb”. The resulting plates were washed with PBS/T and incubated with goat anti-human IgG-HRP for 1 h at room temperature. The plates were developed with TMB substrate and analyzed by spectrophotometer at OD 450 nm.

Binder | EC50 [nM]
B14 | 29.3
B15 | 0.06
B16 | 4.19
B17 | 0.11
B18 | 18.2
B19 | 2.03
B20 | 1.87
B23 | 6.94
B24 | 26.5
B25 | 0.11

biological target: T4, His-tagged human 4-1BB protein (human, UniProt Q07011 24-186); assay: ELISA, coated His-tagged 4-1BB, anti-human IgG-HRP
T4 construct: Coated on ELISA plates at 2 µg/ml; also called hu4-1BB; soluble human 4-1BB; not shown: His tag
Experimental: as §3

Binder | EC50 [nM]
B14 | > 30
B15 | > 30
B16 | > 30
B17 | > 30
B18 | > 30
B19 | > 30
B20 | > 30
B21 | 11.1
B22 | > 30
B23 | 0.37
B24 | 9.12
B25 | > 30

biological target: T1, human 4-1BB expressed on cells; assay: flow cytometry competition with biotinylated human 4-1BB ligand on CHO-K1/human 4-1BB cells
Experimental: CHO-K1 cells overexpressing human 4-1BB were incubated with biotinylated human 4-1BB ligand (0.3 μg/ml) in the presence of serial diluted anti-41BB nanobodies for 1 h at 4° C. with Ref mAb as the reference antibody. Then, cells were incubated with Alexa Fluor 633-conjugated streptavidin. Binding was measured with an Agilent flow cytometer. As shown in FIG. 2 and Table 3, all of the tested nanobodies could block 4-1BB ligand binding to 4-1BB in a concentration-dependent manner while Ref mAb had no such effect.

Binder | IC50 [nM]
B14 | 1.42
B15 | 0.387
B16 | 0.995
B17 | 0.988
B18 | 0.923
B19 | 0.682
B20 | 0.573
B21 | 2.05
B22 | 2.57
B23 | 1.48
B24 | 1.88
B25 | 0.573
